Experimental data as given in patent US20260258147A1 (Merck Sharp & Dohme, published 2026).

T1: membrane-bound rhesus MSLN (Rhesus (Macaca mulatta))
T1 construct: The expressed construct is not described further; also called Rh MSLN-CHOK1; RhMSLN
T1 chain: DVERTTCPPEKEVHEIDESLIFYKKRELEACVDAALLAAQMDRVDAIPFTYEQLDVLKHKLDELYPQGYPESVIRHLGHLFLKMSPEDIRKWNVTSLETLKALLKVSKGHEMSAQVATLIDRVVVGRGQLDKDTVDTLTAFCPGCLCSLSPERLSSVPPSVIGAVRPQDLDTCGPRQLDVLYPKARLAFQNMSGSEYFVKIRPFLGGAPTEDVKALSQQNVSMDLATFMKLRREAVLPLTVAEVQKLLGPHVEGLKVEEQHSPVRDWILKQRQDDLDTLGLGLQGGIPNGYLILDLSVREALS

T2: soluble rhesus MSLN (87BIC) (Rhesus (Macaca mulatta))
T2 construct: Purified soluble protein coated on the ELISA plate; also called Rh MSLN (87BIC); purified rhesus MSLN
T2 chain: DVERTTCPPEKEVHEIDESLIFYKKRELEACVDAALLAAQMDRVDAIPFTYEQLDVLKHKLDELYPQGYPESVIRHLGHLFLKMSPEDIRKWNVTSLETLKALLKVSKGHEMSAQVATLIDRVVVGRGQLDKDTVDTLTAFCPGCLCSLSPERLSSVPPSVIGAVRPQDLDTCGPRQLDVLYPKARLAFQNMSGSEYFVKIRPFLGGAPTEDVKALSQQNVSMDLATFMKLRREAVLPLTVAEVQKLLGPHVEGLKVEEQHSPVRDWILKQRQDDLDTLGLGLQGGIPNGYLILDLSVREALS


Key:
[1] = target: T3, membrane-bound human MSLN (human, UniProt Q13421 296-598); experiment: cell ELISA, CHOK1 cells expressing human MSLN
T3 construct: the assay field says which; The construct expressed in CHOK1 is not described further; also called HuMSLN-CHOK1; human mesothelin on CHOK1 cells
Description: (§1) The wells of a 96-well plate are seeded with sufficient cells to provide 95-100% confluency on day 0 (the day of assay). On day 0 the culture medium is removed and 50 μL/well hybridoma supernatant fraction, or purified antibody starting at 10 μg/mL or equal molar concentration and serially diluted 4 or 5-fold in CHO medium (DMEM F12, 10% Bovine serum). The plate is then incubated for an hour at room temperature or a temperature up to 37° C. Next, about 50 μL of a pre-determined concentration of ligand is added to the wells of the plate and the plate incubated for 30 minutes at room temperature or a temperature up to 37° C. The plate wells are washed with ELISA wash (PBS containing 0.05% polysorbate 20. Next, 50 μL/well of HRP-conjugated anti-species IgG diluted 1:2000 in CHO medium is added to the wells and the plate incubated for an hour at room temperature or a temperature up to 37° C. HRP conjugated anti-species IgG include goat anti-mouse IgG-HRP (Southern Biotech, cat #1030-05), goat anti-rat IgG-HRP (Southern Biotech, cat #3030-05), and goat anti-human IgG-HRP (Jackson Immunologics, cat #109-036-098). The plate wells are washed with the ELISA wash. Next, 50 μL/well TMB substrate (1 step Ultra TMB-ELISA: Thermo Fisher, Cat #34029) is added to the wells. When the blank starts to turn blue, 50 μL/well TMB stop solution (KPL, Cat #50-85-06) is added to the wells and A450-A620 is measured on an ELISA reader.
(§2) The OVACAR3 cell line is a human ovarian cancer cell line that expresses high levels of human MSLN.

[2] = target: T1, membrane-bound rhesus MSLN; experiment: cell ELISA, CHOK1 cells expressing rhesus MSLN
Description: as §1, §2

[3] = target: T3, membrane-bound human MSLN; experiment: cell ELISA, OVCAR3 cells (endogenous human MSLN)
[4] = target: T4, soluble human MSLN (87BGR) (human, UniProt Q13421 296-598); experiment: protein ELISA, coated soluble human MSLN (87BGR)
T4 construct: Purified soluble protein coated on the ELISA plate; also called HuMSLN (87BGR); purified human MSLN
Description: (§3) The wells of a 96-well plate are coated with 50 μL of purified human or rhesus MSLN in a carbonate coating buffer (5.3 g NaHCO₃ and 3.2 g Na₂CO₃ in 2 L H₂0) or HyClone Dulbecco's phosphate buffered saline (DPBS; Hyclone, cat #SH30028.02) at a concentration of 1-2 μg/mL and incubated overnight at 4° C. Afterwards, the plate wells are washed with well wash solution (phosphate buffered saline containing 0.05% polysorbate 20). The plate wells are then blocked by adding Super Block Blocking Buffer T20 (Thermo Scientific, #37536) for 1-2 hours at room temperature followed by washing with well wash solution. Next, 50 μL/well hybridoma supernatant fraction (used neat), or purified antibody starting at 10 μg/mL and serially diluted 4- or 5-fold in ELISA buffer (DPBS+0.1% BSA+0.05% polysorbate 20 is added to the wells. The plates are incubated for an hour at room temperature, then the wells washed with well wash solution and 50 μL/well horseradish […] (HRP) conjugated anti-species IgG diluted 1:3000-5000 in ELISA buffer is added to the wells. HRP conjugated anti-species IgG include goat anti-mouse IgG-HRP (Southern Biotech, cat #1030-05), goat anti-rat IgG-HRP (Southern Biotech, cat #3030-05), and goat anti-human IgG-HRP (Jackson Immunologics, cat #109-036-098). The plates are incubated for an hour at room temperature, then the wells washed with well wash and 50 μL/well ABTS Peroxidase Substrate (Kirkgaard & Perry Laboratories) is added to the wells. After 10 minutes the OD at 405 nm is measured using an ELISA plate reader.
as §2

[5] = target: T2, soluble rhesus MSLN (87BIC); experiment: protein ELISA, coated soluble rhesus MSLN (87BIC)
Description: as §3, §2

T4 sequence (Q13421 other isoform, or with tags, fused parts or gaps limits assumed, form in doubt): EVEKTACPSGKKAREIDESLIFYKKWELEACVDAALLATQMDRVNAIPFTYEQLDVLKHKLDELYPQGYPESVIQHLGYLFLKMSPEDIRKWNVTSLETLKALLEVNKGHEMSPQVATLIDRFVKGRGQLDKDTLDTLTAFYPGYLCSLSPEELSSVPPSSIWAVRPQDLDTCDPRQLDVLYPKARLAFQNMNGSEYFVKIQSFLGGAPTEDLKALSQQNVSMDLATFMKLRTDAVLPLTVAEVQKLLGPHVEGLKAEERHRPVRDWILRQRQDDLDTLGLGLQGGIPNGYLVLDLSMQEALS
T3 sequence (Q13421 other isoform, or with tags, fused parts or gaps limits assumed): as the sequence (Q13421 other isoform, or with tags, fused parts or gaps limits assumed, form in doubt) above

Row | EC50 [1] [µg/mL] | binding result [2] | EC50 [3] [µg/mL] | EC50 [4] [µg/mL] | EC50 [2] [µg/mL] | EC50 [5] [µg/mL] | Binder
1 | 0.01 | no binding | 0.01 | 0.11 |  |  | SV018.20B12.1D1 (antibody, V domains shown, also called antibody from hybridoma clone SV018.20B12.1D1) VH: QVQLQESGPGLVKPSETLSLTCTVSGGSISSYYWSWIRQPPGKGLEWIGYIYYSGSTNYNPSLKSRVTISVDTSKNQFSLKLSSVTAADTAVYYCARTGYIPMDVWGQGTTVTVSS VL: EIVLTQSPDFQSVTPKEKVTITCRASQSIGSNLHWYQQKPDQSPKLLIKYVSQSFSGVPSRFSGSGSGTDFTLTINSLEAEDAATYYCHQSRSLPYTFGQGTKLEIK
2 | 0.01 | no binding |  | 1.37 |  |  | SV018.45B6.1G1 (antibody, V domains shown, also called SV018.45.1G1) VH: QVQLLQSGAEVKKPGASVKVSCKASGYTFTTYGISWVRQAPGQGLEWLGWITAYNRNTNYAQKLQGRVTMTTDTSTSTSFMVLRSLRSDDTAVYYCARVGDSDAFDIWGQGTMVTVSS VL: EIVMTQSPATLSLSPGERATLSCRTSQSVFNSFLSWYQQKPGQAPRLLLYGTSTRATGIPARFSGSGSGTDFTLTISSLQPEDFAVYYCQQDYKLPLTFGGGTKVEIK
3 | 0.03 |  | 0.01 | 0.03 | 0.26 | 0.01 | SV017.47D7.1C2 (antibody, V domains shown, also called antibody from hybridoma clone SV017.47D7.1C2) VH: EVQLVESGGGLVQPGGSLRLSCAATGFTFSSYWMHWVRQGPGKGLVWVSRINSDGTSTVYADSVKGRFTISRDNAKNTLYLQMNSLRAEDTAVYYCARGRGIMTYWGQGTLVTVSS VL: DIQMTQSPSSLSASVGDRVTITCRASQDIGSWLTWYQRKPEKAPKSLIYAASSLQSGVPSRFSGSGSGTDFTLTISSLQPEDFATYYCQQYKSYPLTFGQGAKLEIK
4 | 0.04 |  | 0.01 | 0.03 | 0.26 | 0.02 | SV017.51F4.1A1 (antibody, V domains shown, also called antibody from hybridoma clone SV017.51F4.1A1) VH: EVQLVESGGGLVQPGGSLRLSCAATGFTFSSYWMHWVRQGPGKGLVWVSRINSDGTSTVYADSVKGRFTISRDNAKNTLYLQMNSLRAEDTAVYYCARGRGIMTYWGQGTLVTVSS VL: DIQMTQSPSSLSASVGDRVTITCRASQDIGSWLTWYQRKPEKAPKSLIYAASSLQSGVPSRFSGSGSGTDFTLTISSLQPEDFATYYCQQYKSYPLTFGQGAKLEIK
5 | 0.05 |  | 0.01 | 0.04 | 0.33 | 0.02 | SV017.50G3.1B1 (antibody, V domains shown, also called antibody from hybridoma clone SV017.50G3.1B1) VH: EVQLVESGGGLVQPGESLRLSCAATGFTFSSYWMHWVRQGPGKGLVWVSRINSDGTSTVYADSVKGRFTISRDNAKNTLFLQMNSLRAEDTAVYYCARGRGIMTYWGQGTLVTVSS VL: DIQMTQSPSSLSASVGDRVTITCRASQDIGSWLTWYQRKPEKAPKSLIYAASSLQSGVPSRFSGSGSGTDFTLTISSLQPEDFATYYCQQYKSYPLTFGQGAKLEIK
6 | 0.02 |  | 0.01 | 0.04 | 0.23 | 0.02 | SV017.13B12.1E1 (antibody, V domains shown, also called antibody from hybridoma clone SV017.13B12.1E1) VH: EVQLVESGGGLVQPGGSLRLSCAATGFTFSSYWMHWVRQGPGKGLVWVSRINSDGTSTVYADSVKGRFTISRDNAKNTLHLQMNSLRAEDTAVYYCARGRGIMTYWGQGTLVTVSS VL: DIQMTQSPSSLSASVGDRVTITCRASQDIGSWLTWYQRKPEKAPKSLIYAASSLQSGVPSRFSGSGSGTDFTLTISSLQPEDFATYYCQQYKSYPLTFGQGAKLEIK
